Patent US20200283521A1

Biological target: human FcRn (human) (UniProt P55899)
Test: SPR steady state at pH 6, FcRn coupled

| Kd [nM] | Substance |
| --- | --- |
| 2600 | isotype control human IgG4 antibody |
| 1180 | isotype control human IgG1 (antibody) |
